Bridge positions count the residues as written; N and C are the ends. Square brackets hold non-standard residues; d marks the D form. Ends that are not written are not given here. Phe(3,4-Cl2) = N[C@@H](Cc1ccc(Cl)c(Cl)c1)C(=O)O; Phe(4-CF3) = N[C@@H](Cc1ccc(C(F)(F)F)cc1)C(=O)O; Phe(4-tBu) = CC(C)(C)c1ccc(C[C@H](N)C(=O)O)cc1; Phe(2,4-Cl2) = N[C@@H](Cc1ccc(Cl)cc1Cl)C(=O)O; NMeR = CN[C@@H](CCCNC(=N)N)C(=O)O; hPhe = N[C@@H](CCc1ccccc1)C(=O)O; Tic = O=C(O)[C@@H]1Cc2ccccc2CN1; β3hE = N[C@@H](CCC(=O)O)CC(=O)O; Pen = CC(C)(S)[C@H](N)C(=O)O; βAla = NCCC(=O)O
B1: SEQ ID NO: 14 (peptide)
peptide: Ac-[Pen][NMeR]SDTL[Pen][hPhe][dE][dK]-NH2
modifications: disulfide 1-7
SMILES: CC(=O)N[C@@H]1C(=O)N(C)[C@@H](CCCNC(=N)N)C(=O)N[C@@H](CO)C(=O)N[C@@H](CC(=O)O)C(=O)N[C@@H]([C@@H](C)O)C(=O)N[C@@H](CC(C)C)C(=O)N[C@H](C(=O)N[C@@H](CCc2ccccc2)C(=O)N[C@H](CCC(=O)O)C(=O)N[C@H](CCCCN)C(N)=O)C(C)(C)SSC1(C)C
B2: SEQ ID NO: 46 (peptide)
peptide: Ac-[Pen][NMeR]SDDL[Pen]WE[dK]-NH2
modifications: disulfide 1-7
SMILES: CC(=O)N[C@@H]1C(=O)N(C)[C@@H](CCCNC(=N)N)C(=O)N[C@@H](CO)C(=O)N[C@@H](CC(=O)O)C(=O)N[C@@H](CC(=O)O)C(=O)N[C@@H](CC(C)C)C(=O)N[C@H](C(=O)N[C@@H](Cc2c[nH]c3ccccc23)C(=O)N[C@@H](CCC(=O)O)C(=O)N[C@H](CCCCN)C(N)=O)C(C)(C)SSC1(C)C
B3: SEQ ID NO: 48 (peptide)
peptide: Ac-[Pen][NMeR][dD]DTL[Pen]WE[dK]-NH2
modifications: disulfide 1-7
SMILES: CC(=O)N[C@@H]1C(=O)N(C)[C@@H](CCCNC(=N)N)C(=O)N[C@H](CC(=O)O)C(=O)N[C@@H](CC(=O)O)C(=O)N[C@@H]([C@@H](C)O)C(=O)N[C@@H](CC(C)C)C(=O)N[C@H](C(=O)N[C@@H](Cc2c[nH]c3ccccc23)C(=O)N[C@@H](CCC(=O)O)C(=O)N[C@H](CCCCN)C(N)=O)C(C)(C)SSC1(C)C
B4: SEQ ID NO: 89 (peptide)
peptide: Ac-[Pen][NMeR]SDTLC[Tic][dE][dK]-NH2
modifications: disulfide 1-7
SMILES: CC(=O)N[C@@H]1C(=O)N(C)[C@@H](CCCNC(=N)N)C(=O)N[C@@H](CO)C(=O)N[C@@H](CC(=O)O)C(=O)N[C@@H]([C@@H](C)O)C(=O)N[C@@H](CC(C)C)C(=O)N[C@H](C(=O)N2Cc3ccccc3C[C@H]2C(=O)N[C@H](CCC(=O)O)C(=O)N[C@H](CCCCN)C(N)=O)CSSC1(C)C
B5: SEQ ID NO: 131 (peptide)
peptide: Ac-[Pen][NMeR]SDTL[Pen][Phe(4-tBu)]E[dK]-NH2
modifications: disulfide 1-7; not fully specified (residue 10); printed as (Ac Pen N-Me-R S D T L Pen F(4tBu) E k NH2)2 DIG, disulfide Pen-Pen; also: homodimer, two subunits joined by DIG linker
B6: SEQ ID NO: 16 (peptide)
peptide: Ac-[Pen][NMeR]SDTL[Pen][Phe(2,4-Cl2)]E[dK]-NH2
modifications: disulfide 1-7
SMILES: CC(=O)N[C@@H]1C(=O)N(C)[C@@H](CCCNC(=N)N)C(=O)N[C@@H](CO)C(=O)N[C@@H](CC(=O)O)C(=O)N[C@@H]([C@@H](C)O)C(=O)N[C@@H](CC(C)C)C(=O)N[C@H](C(=O)N[C@@H](Cc2ccc(Cl)cc2Cl)C(=O)N[C@@H](CCC(=O)O)C(=O)N[C@H](CCCCN)C(N)=O)C(C)(C)SSC1(C)C
B7: SEQ ID NO: 17 (peptide)
peptide: Ac-[Pen][NMeR]SDTL[Pen][Phe(3,4-Cl2)]E[dK]-NH2
modifications: disulfide 1-7
SMILES: CC(=O)N[C@@H]1C(=O)N(C)[C@@H](CCCNC(=N)N)C(=O)N[C@@H](CO)C(=O)N[C@@H](CC(=O)O)C(=O)N[C@@H]([C@@H](C)O)C(=O)N[C@@H](CC(C)C)C(=O)N[C@H](C(=O)N[C@@H](Cc2ccc(Cl)c(Cl)c2)C(=O)N[C@@H](CCC(=O)O)C(=O)N[C@H](CCCCN)C(N)=O)C(C)(C)SSC1(C)C
B8: SEQ ID NO: 19 (peptide)
peptide: Ac-[Pen][NMeR]SDTL[Pen][hPhe]E[dK]-NH2
modifications: disulfide 1-7
SMILES: CC(=O)N[C@@H]1C(=O)N(C)[C@@H](CCCNC(=N)N)C(=O)N[C@@H](CO)C(=O)N[C@@H](CC(=O)O)C(=O)N[C@@H]([C@@H](C)O)C(=O)N[C@@H](CC(C)C)C(=O)N[C@H](C(=O)N[C@@H](CCc2ccccc2)C(=O)N[C@@H](CCC(=O)O)C(=O)N[C@H](CCCCN)C(N)=O)C(C)(C)SSC1(C)C
B9: SEQ ID NO: 182 (peptide)
peptide: Ac-[Pen][NMeR]SDTL[Pen][Phe(4-tBu)][β3hE][dK]-NH2
modifications: disulfide 1-7; not fully specified (residue 10); printed as (Ac Pen N-Me-R S D T L Pen F(4-tBu) b-H-E k NH2)2 IDA Alexa-488, disulfide Pen-Pen; also: homodimer: two subunits joined by IDA linker, Alexa-488 label on the linker
B10: SEQ ID NO: 183 (peptide)
peptide: Ac-[Pen][NMeR]SDTL[Pen][Phe(4-tBu)][β3hE][dK]-NH2
modifications: disulfide 1-7; not fully specified (residue 10); printed as (Ac Pen N-Me-R S D T L Pen F(4-Bu) b-H-E k NH2)2 IDA Alexa-647, disulfide Pen-Pen; also: homodimer: two subunits joined by IDA linker, Alexa-647 label on the linker
notes: F(4-Bu) as printed
B11: SEQ ID NO: 21 (peptide)
peptide: C[NMeR]SDTL[Pen]W-NH2
modifications: disulfide 1-7; not fully specified (N-terminus); printed as PEG25 NH2 C N-Me-R S D T L Pen W NH2, disulfide C-Pen; also: N-terminal PEG25 linker, number of subunits not shown
notes: N-terminal linker printed without dimer brackets
B12: SEQ ID NO: 192 (peptide)
peptide: Ac-[Pen][NMeR]SQIQ[Pen][Phe(4-tBu)][β3hE][dK]-NH2
modifications: disulfide 1-7; also: homodimer via IDA linker on D-Lys10 side chains, Alexa-647 label
B13: SEQ ID NO: 36 (peptide)
peptide: Ac-C[NMeR]SDTL[Pen]W[dK]-NH2
modifications: disulfide 1-7; not fully specified (residue 9); printed as (Ac C N-Me-R S D T L Pen W k NH2)2 PEG13, disulfide C-Pen; also: dimer, two subunits joined by PEG13 linker
B14: SEQ ID NO: 37 (peptide)
peptide: Ac-C[NMeR]SDTL[Pen]W[dK]-NH2
modifications: disulfide 1-7; not fully specified (residue 9); printed as (Ac C N-Me-R S D T L Pen W k NH2)2 PEG25, disulfide C-Pen; also: dimer, two subunits joined by PEG25 linker
B15: SEQ ID NO: 40 (peptide)
peptide: Ac-[Pen][NMeR]SDTL[Pen][hPhe][dE][dK]-NH2
modifications: disulfide 1-7; not fully specified (residue 10); printed as (Ac Pen N-Me-R S D T L Pen HPhe e k NH2)2 DIG, disulfide Pen-Pen; also: dimer, two subunits joined by DIG linker
B16: SEQ ID NO: 45 (peptide)
peptide: Ac-[Pen][NMeR]SDTL[Pen][hPhe]E[dK]-NH2
modifications: disulfide 1-7; not fully specified (residue 10); printed as (Ac Pen N-Me-R S D T L Pen HPhe E k NH2)2 DIG, disulfide Pen-Pen; also: dimer, two subunits joined by DIG linker
B17: SEQ ID NO: 49 (peptide)
peptide: Ac-[Pen][NMeR]SDTL[Pen]WEP[dK]-NH2
modifications: disulfide 1-7
SMILES: CC(=O)N[C@@H]1C(=O)N(C)[C@@H](CCCNC(=N)N)C(=O)N[C@@H](CO)C(=O)N[C@@H](CC(=O)O)C(=O)N[C@@H]([C@@H](C)O)C(=O)N[C@@H](CC(C)C)C(=O)N[C@H](C(=O)N[C@@H](Cc2c[nH]c3ccccc23)C(=O)N[C@@H](CCC(=O)O)C(=O)N2CCC[C@H]2C(=O)N[C@H](CCCCN)C(N)=O)C(C)(C)SSC1(C)C
B18: SEQ ID NO: 53 (peptide)
peptide: H-[βAla][Pen][NMeR]SDTL[Pen]W[dE]-NH2
modifications: disulfide 2-8
SMILES: CC(C)C[C@@H]1NC(=O)[C@H]([C@@H](C)O)NC(=O)[C@H](CC(=O)O)NC(=O)[C@H](CO)NC(=O)[C@H](CCCNC(=N)N)N(C)C(=O)[C@@H](NC(=O)CCN)C(C)(C)SSC(C)(C)[C@@H](C(=O)N[C@@H](Cc2c[nH]c3ccccc23)C(=O)N[C@H](CCC(=O)O)C(N)=O)NC1=O
B19: SEQ ID NO: 3 (peptide)
peptide: Ac-[Pen][NMeR]SDTL[Pen][Phe(4-CF3)][dE][dK]-NH2
modifications: disulfide 1-7; not fully specified (residue 10); printed as (Ac Pen N-Me-R S D T L Pen F(4-CF3) e k NH2)2 DIG, disulfide Pen-Pen; also: dimer, two subunits joined by DIG linker

What was measured:
[1] = target: T1, rh integrin α4β7 (R&D Systems #5397-A30) (human, UniProt P13612 34-970; P26010 20-723); assay: competition ELISA vs MAdCAM-1
T1 construct: bought; coated on a nickel coated plate; also called immobilized α4β7; immobilized α4β7 integrin protein

[2] = target: T2, human α4β7 integrin on cells (human, UniProt P13612 34-1032; P26010 20-798); assay: RPMI8866 cell adhesion to MAdCAM-1
T2 construct: whole, on cells; also called α4β7 cell (Hu); RPMI8866 cells

| Binder | IC50 [1] [µM] | IC50 [2] [µM] |
| --- | --- | --- |
| B1 | > 0.025 | – |
| B2 | > 1 | – |
| B3 | > 1 | – |
| B4 | > 0.025 | – |
| B5 | ≤ 0.01 | – |
| B6 | > 0.01 | – |
| B7 | > 0.01 | – |
| B8 | > 0.01 | – |
| B9 | ≤ 0.01 | – |
| B10 | ≤ 0.01 | – |
| B11 | – | > 0.05 |
| Ac-[Pen][NMeR]SQIQ[Pen][Phe(4-tBu)][β3hE][dK]-NH2 (disulfide 1-7; also: homodimer via DIG linker on D-Lys10 side chains) [SEQ ID NO: 189] | – | > 10 |
| Ac-[Pen][NMeR]SQIQ[Pen][Phe(4-tBu)][β3hE][dK]-NH2 (disulfide 1-7; also: homodimer via IDA linker on D-Lys10 side chains) [SEQ ID NO: 190] | – | > 100 |
| B12 | – | > 10 |
| B13 | – | > 0.05 |
| B14 | – | > 0.1 |
| B15 | ≤ 0.01 | – |
| B16 | – | > 0.025 |
| B17 | > 0.01 | – |
| B18 | > 0.01 | – |
| B19 | – | > 0.025 |

From patent US20220162261A1 (published 2022)
